Assay [1] concerns the target PR3_10_56: PR3_10 (H44A) CD33SP SS CD28TM CAAR (human). Kind of assay: cell-based or functional assay.
The target of assay [2] is PR3_1_30: PR3_1_(WT) CD33SP MS CD28TM CAAR (human). Kind of assay: cell-based or functional assay.
Chain of PR3_1_30: PR3_1_(WT) CD33SP MS CD28TM CAAR (human) (chain, as listed by the source limits assumed): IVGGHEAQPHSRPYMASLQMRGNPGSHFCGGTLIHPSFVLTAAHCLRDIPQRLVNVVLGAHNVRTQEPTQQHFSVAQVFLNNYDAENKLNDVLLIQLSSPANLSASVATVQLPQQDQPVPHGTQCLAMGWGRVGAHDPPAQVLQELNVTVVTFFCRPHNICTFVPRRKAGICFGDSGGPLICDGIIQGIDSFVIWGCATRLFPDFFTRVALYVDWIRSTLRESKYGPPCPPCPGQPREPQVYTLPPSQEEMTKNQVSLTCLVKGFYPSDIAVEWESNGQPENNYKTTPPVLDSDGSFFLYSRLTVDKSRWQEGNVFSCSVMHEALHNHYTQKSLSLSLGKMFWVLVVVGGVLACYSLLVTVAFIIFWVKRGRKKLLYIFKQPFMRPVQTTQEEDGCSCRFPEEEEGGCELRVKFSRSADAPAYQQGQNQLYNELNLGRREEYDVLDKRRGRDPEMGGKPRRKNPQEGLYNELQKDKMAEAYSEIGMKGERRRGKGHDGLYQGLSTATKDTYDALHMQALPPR

Chain of PR3_10_56: PR3_10 (H44A) CD33SP SS CD28TM CAAR (human) (chain, as listed by the source H44A H44A limits assumed): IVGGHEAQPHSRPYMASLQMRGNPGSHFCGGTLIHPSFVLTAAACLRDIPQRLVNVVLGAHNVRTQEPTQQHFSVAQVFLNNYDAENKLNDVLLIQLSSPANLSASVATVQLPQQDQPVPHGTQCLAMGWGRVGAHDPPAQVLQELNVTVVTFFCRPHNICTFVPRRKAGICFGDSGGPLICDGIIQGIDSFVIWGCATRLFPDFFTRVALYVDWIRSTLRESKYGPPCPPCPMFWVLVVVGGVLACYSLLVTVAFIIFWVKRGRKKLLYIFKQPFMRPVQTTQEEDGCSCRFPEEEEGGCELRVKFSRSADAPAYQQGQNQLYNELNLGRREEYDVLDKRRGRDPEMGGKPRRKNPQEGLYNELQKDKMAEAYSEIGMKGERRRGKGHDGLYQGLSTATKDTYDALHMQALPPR

“anti-PR3 antibody, EMD Millipore, clone MCPR3-3, catalog #MABF973”: the CAAR killing efficiency against the lowest density IgG+-CHO-S target (MCPR3-3 #4 (L)) in assay [1] and in assay [2] was 65% in each case.

The record behind these values is patent publication US20250161359A1.
